From patent publication US20260184814A1, “BROADLY NE[…] INFLUENZA NEURAMINIDASE” (priority 2022, published 2026) come the findings set out here.

Test [1] addresses N2 A/Tanzania/205/2010 (82-469) S245N S247T (Influenza A virus). Briefly: SPR (Biacore), NA on anti-Avi chip, 1:1 model; NA code NA-19 (+glyc245).
Test [2] addresses N2 A/South_Australia/34/2019 (82-469) N245S (Influenza A virus). Briefly: SPR (Biacore), NA on anti-Avi chip, 1:1 model; NA code NA-24 (-glyc245).
Test [3] addresses N2 A/Tanzania/205/2010 (82-469) S245N S247T (Influenza A virus). Briefly: SPR; NA-19. Also on record: unit not given beside the values.
Test [4] concerns the target N2 A/South_Australia/34/2019 (82-469) N245S (Influenza A virus). Briefly: SPR; NA-24. Also noted: unit not given beside the values.
In test [5] the target is N2 A/Hong_Kong/2671/2019 (82-469) N245S (Influenza A virus). As to the kind of experiment: SPR; NA-25. Also on record: unit not given beside the values.
In test [6] the target is N2 A/Tanzania/205/2010 (82-469) S245N S247T (Influenza A virus). Briefly: SPR, 1:1 binding; NA-19 "+glyc245".
The target of test [7] is N2 A/South_Australia/34/2019 (82-469) N245S (Influenza A virus). Briefly: SPR, 1:1 binding; NA-24 "-glyc245".
Test [8] concerns the target N2 A/Hong_Kong/2671/2019 (82-469) N245S (Influenza A virus). Briefly: SPR, 1:1 binding; NA-25 "-glyc245".

Residue numbers refer to the chain shown, from its start.

B1: FNI9-v4.1 (antibody, V domains shown)
VH: QVHLVQSGAEVKEPGSSVTVSCKASGGSFSNQAISWVRQAPGQGLEWMGGIFPISGTPTSAQRFQGRVTFTADESTTTVYMDLSSLRSDDTAVYYCARAGSDYFNRDLGWENYYFASWGQGTLVTVSS
VL: EIVMTQSPATLSLSSGERATLSCRASRSVSSNLAWYQQKPGQAPRLLIYDASTRATGFSARFAGSGSGTEFTLTISSLQSEDSAIYYCQQYNNWPPWTFGQGTKVEIK
Consider B1, for which the fold-change in affinity compared to FNI9-v1.1 in test [1] was determined as 2.47; in test [2], 1.53.

B2: FNI9-v9.1 (antibody, V domains shown)
VH: B1 VH with S30N, P58A, F70I
VL: B1 VL
For the molecule B2, the fold-change in affinity compared to FNI9-v1.1 in test [1] came out at 4.59; in test [2], 0.99.

B3: FNI9-v8.1 (antibody, V domains shown)
VH: B1 VH with S28T, S30N
VL: B1 VL
Take B3: the fold-change in affinity compared to FNI9-v1.1 amounted to 1.12 in test [1] and 0.42 in test [2].

B4: Fab FNI9-v4.1 (Fab, V domains shown)
VH: B1 VH
VL: B1 VL
As for B4, the KD compared to v1.1 came out at 1.23 in test [3], 1.66 in test [4] and 1.53 in test [5]. Besides, the Kd in test [6] stood at 8.31 nM; in test [7], 22.8 nM; in test [8], 1.07 nM.

B5: Fab FNI9-v8.1 (Fab, V domains shown)
VH: B1 VH with S28T, S30N
VL: B1 VL
As for B5, the KD compared to v1.1 in test [3] came to 0.57; in test [4], 0.82; in test [5] it was 0.7. Moreover, the Kd stood at 3.83 nM in test [6], 11.2 nM in test [7] and 0.49 nM in test [8].
